Source: the DeepSol protein solubility set

Test: soluble on expression in E. coli; label from the status in PepcDB or PDB records

| Sequence | soluble on expression in E. coli |
| --- | --- |
| MKLIGIVGSNADSSYNRLLLQYIGKEFYKMFDLEILEIKDIPMFNQSKDQTNSVLIQNMNRKILQADGVIIATPEHNHTIPAGLKSVLEWLSFKIHPLENKPVMIVGCSYYDQGTSRAQLHLRQILDAPGVNAIVMPGNEFLLGKAKEAFDENGNLIAEGTRQFLESTLQKFVEFIDVISKLEGAKPKDLPEDLHAKGTIETTIEGVDMAADDWVEQAAEAVQAVEGDTYVKLDRGILTVDQLNYFLKSMPMELTYADSNNQFLYYNKKMAAEEMFAKRQPGQVGNPLANCHPPKALKNVEWVIQQLRSGKTDAIRVHVPMHGPDTYVVHNYQAMYDDNGNYAGINEYILDFKPIVDWYLKQTGQELVGGKNVDAVSGASKKEAPETADSVSSASVHEEESATEKPTVDSVSSASIKE | not soluble |
| MKLKLFFHIVLLCFSLPIWAMKTVDVTASPKMDDQARMNLAQEFANKQQWIDVFNIMYPMALEGNITAQSNLGMLYNLGRGTVRDYEKAYWWFSEAAEKGSVKGLNNLGVMYLRGDYVKQNTEQAIKLFERTAQAKDTDAMMMLSNIYRLQNQPEKIIGMAEESRLEHHHHHH | not soluble |
| MKLNSPSRIHMGLIDLNGELGRVDGGVGVALDYPNFQIEGKESSEIELDSKIEIDEKDRENLESRIKNAARNVLDIIGEDGISLKINEAILSHSGLGSGTQVSLSTGKITSLVYGQDLNAETLAKITGRGGTSGIGVAAFETGGFIVDGGHTFGEGKDKIDFRPSSASKDVKPSPVLFRHDFDWDIVLTIPKGEQVCGDREVDIFRKFCPVPSEDVQKICRLVLMKMMPAVIEKDFNSFGMAVNELQNLGFKRAEVGLQKESLKQLLSKLQDVSYSGISSFGPTIYSLGDKDTITEISNEIFDKFGIDGEIISTKANNSGYEIIK | not soluble |
| MKLPDELRQAYQKNARQFSWVFPLETEQTALAIFAAGEKAYQGERFFWQTPKKDFALVGFGYETILKGAETETHQLNNFLKKEAATRFQNMSISGTGALLFGGLPFDTEQTPTEAWGELGEGWFYLPSILFTFSGSRIYGTLNFSGSSEQEVEERWSTLVAQFDRLLATCEELPAVAETKIDKEEVAVTEWLQAVNETVAVLREDGPLKKVVLARQLAVSSPEKIRSNQVLVNLMAQQQNTYLFALEAKDTSFIGATPERLLLGTKETFATACIAGTIKTGQTPEETKTLGAQLLQDRKNTGEHQIVVERLAKELAKMTTSENSIQAPIILENRDVQHLYVPISGQRKPGISFLESVMQLHPTPALGGEPKELAVEWIRQYEPGSRGLYGAPIGWISGNDDSGEFAVALRSGVFAGQQGVLYAGCGIVADSQAELEREETKIKFQPMLRGIGGQV | not soluble |
| MKLTIIRLEKFSDQDRIDLQKIWPEYSPSSLQVDDNHRIYAARFNERLLAAVRVTLSGTEGALDSLRVREVTRRRGVGQYLLEEVLRNNPGVSCWWMADAGVEDRGVMTAFMQALGFTTQQGGWEKCG | soluble |
| MKLTILRLEHFSAQDQIDLGKIWPEYSASSLSVDETHRIYAARFNERLLGAVRVTLSGTQGALDSLRVREITRRRGVGQYLVEEVIRDNPNVSSWWMADVGVEDRSVMAAFMQALGFTAQHDGWEKR | not soluble |
| MKLYIGNKNYSSWSLRAWLMVKKSGIKFDEILLQLDTDSFYQQLQSISPTLKVPTLVDGDITVWDSLSICEYINDSYLSGTAWPQDPKQKAKARSLACEMHSGFNALRNALPMNIRARRYVELSPAVQQDIARVDSIWSQQMAEFAPCQTQGTWLFGQWSIADMMFAPVVMRFFTYEIEVSQASRAYMEYIMSQPQMQAWITAAKAETEIVEADEAGVDR | not soluble |
| MKLYYSPGACSLSPHIALREAGLNFELVQVDLASKKTASGQDYLEVNPAGYVPCLQLDDGRTLTEGPAIVQYVADQVPGKQLAPANGSFERYHLQQWLNFISSELHKSFSPLFNPASSDEWKNAVRQSLNTRLGQVARQLEHAPYLLGDQLSVADIYLFVVLGWSAYVNIDLSPWPSLQAFQGRVGGREAVQSALRAEGLIKE | soluble |
| MKMIQFWFDFASTYSYPAAMQIRQLKDEYRFSLHPFLLGGIFQKQGLNDSPFNAYPVKGQYMWRDLERICQKLDLKFHRPVLFPQNGLLAARIACQYASAPWIFDFICSVYQANFVQNLDIGQPETISQILQNMQLDCNDIIMTSTTDTAKQTLKQNGMIAESLHIFGAPSFVVENELFWGQDRLQDAIDWSQR | not soluble |
| MKNIFGNKNTKRSKNKDGKALASTASKDVADPPKQGGTKGSKKPKPSRGNDEKGREPETSAQSKKAKKGKPKRDSKAATPALSPGSREMLSDHKKQTVEDDPPLPIATSVAGTVTTTGMPALLPAENATQPLKEVVNSGKKSKGAPNSATATPVSHKSTITEGADKWVGEDVAKNWMDSIDLAEVKKEFEKLQSMKVDVEKECKTWKANSKYNQSEDFPALDSNLLKVEKDYVNISRVEIPLGRNIYIGQVPVKDTEETFWKAVFDKRIVSIDVIVGDEPIEFFPKKAEDYKNYGQMWINNRKVEYVSDDVFRFSIEVLPHGCSNSIICNVTVISNWKVDSVPVKQAIAIKEAFGLNSYLLKAPADDNAMINSQHGAGRAGYFLALAVAVHTIDTKVAEPCIVDIVKSIRSQRPRAVDSFCQYCSLYISLLYFIKKKVTKPAEGDKKSTPTNKYLHKKSVEMTKQFTNILLEANQPSVMGPQ | not soluble |
| MKNIIPQALLTMPILSTGLQAQEKQPTPNLVFIMADQYRGDAIGCIGKEPVKTPHLDKLASEGINFTNAISSYPVSSPARGMLMTGMYPIGSKVTGNCNSETAPYGVELSQNARCWSDVLKDQGYNMGYIGKWHLDAPYKPYVDTYNNRGKVAWNEWCPPERRHGFDHWIAYGTYDYHLKPMYWNTTAPRDSFYYVNQWGPEYEASKAIEYINGQKDQKQPFALVVSMNPPHTGYELVPDRYKEIYKDLDVEALCKGRPDIPAKGTEMGDYFRNNIRNYYACITGVDENVGRIIEALKQNNLFDNTIVVFTSDHGICMGAHENAGKDIFYEESMRIPMILSWPDQIKPRKSDPLMIAFADLYPTLLSMMGFSKEIPETVQTFDLSNEVLTGKNKKDLVQPYYFVKFDNHATGYRGLRTDRYTYAVHATDGKIDNVILFDRTNDPHEMNNIASQQLKLTHTFNRQLKTWLEKTNDPFAQYIKLKLEHHHHHH | soluble |
| MKNKVVVVTGVPGVGGTTVTQKAMDILSEEGLNYKMVNFGSAMFDVANEEGLASDRDQMRKLDPETQKRIQKMAGRKIAEMAKESPVAVDTHSTVKTPKGYLPGLPAWVLTELNPDIVIVVETDGDEILMRRLSDESRKRDLETTASIEEHQFMNRAAAMSYGVLTGATVKIVKNKNGLVDNAVEELMSVLR | soluble |
| MKNLVEEKEAFRFGVSGDIGSFSEEAALLYARKKGLNAHLVHLLDMEGVLNAIENETIDLGILPVVNLLGGLVKPAFQAMGKYSFTPIDEIWHDINQCLLVKTNTQNHKITHIVSHPQGFAQCKKFLRNKFKNAKKIEWIDTAKAAKDLAEGILPPHAAVIASARCAPLYDLKISARNIQDSHLNRTAFILVKKLEHHHHHH | not soluble |
| MKNNVKNWTTKEVKQSLDKFNNILIKNTFLLQYLKKEFSASSAYCLSMLPEEEDIYEILVNGNIIIDLEFNKHTNETVVINVTDVDEYLKTLTNESGRVFFTLAKEIGKQKNI | not soluble |
| MKPEDFRTDNKRPLTGEEYLKSLQDGREIYIYGERVKDVTTHPAFRNAAASVAQLYDALHKPSMQDTLCWNTDTGSGGYTHKFFRVAKSADDLRQQRDAIAEWSRLSYGWMGRTPDYKAAFGCALGANPAFYGQFEQNARNWYTRIQETGLYFNHAIVNPPIDRHKPADEVKDVYIKLEKETDAGIIVSGAKVVATNSALTHYNMIGFGSAQVMGENPDFALMFVAPMDAEGVKLISRASYEMVAGATGSPFDYPLSSRFDENDAILVMDKVLIPWENVLIYRDFDRCRRWTMEGGFARMYPLQACVRLAVKLDFITALLKKSLECTGTVEFRGVQADLGEVVAWRNMFWALSDSMCSEATPWVNGAWLPDHAALQTYRVMAPMAYAKIKNIIERNVTSGLIYLPSSARDLNNPQIDQYLAKYVRGSNGMDHVERIKILKLMWDAIGSEFGGRHELYEINYSGSQDEIRLQCLRQAQSSGNMDKMMAMVDRCLSEYDQNGWTVSHLHNNDDINQLDKLLK | not soluble |
| MKPKLILMSHGRMAEETLASTQMIVGELADAAIVSMTAEDGLSGTQAKLAAILKEAGNVPTLVLADLKGGTPCNVAMMAMGTYPQLRVVAGLNLAMAIEAAVSPVENVDELAAYLTQIGQSAVTTIDLPELTDEEEFEE | soluble |
